Patent US10967068B2, “Stability-modulating linkers for use with antibody drug conjugates” (priority 2014, dated 2021)
*1 amine or outer side, *2 acyl side, *3 side chain or, on linkers, in order; H or OH if unused. Where a SMILES comes first, the peptide text is derived from it. [ ]: non-standard residue; d: D form. The star is where a group is joined. Dolaproine = CO[C@@H]([C@@H]1CCCN1)[C@@H](C)C(=O)O; Dil = CC[C@H](C)[C@H](NC)[C@@H](CC(=O)O)OC; Benzenesulfonyl = O=S(=O)(c1ccccc1)*; PABC = O=C(OCc1ccc(N[*:1])cc1)[*:2]; Doe = c1ccc(C[C@H](N*)c2nccs2)cc1; Glyceroyl(2S) = O=C([C@@H](O)CO)*; Cit = NC(=O)NCCC[C@H](N)C(=O)O; Propanoyl(3-OH) = O=C(CCO)*; Aib = CC(C)(N)C(=O)O; Ethyl(2-NH2) = NCC*; Ms = CS(=O)(=O)*; X3 = NCCOCC*

Assay: In Vitro Stability Assay—Mouse Plasma
Assay type: in vitro ADME
Details: for DAR: before plasma incubation
[1] = attachment position L11B, % DAR remaining after plasma 3 or 4.5 days
[2] = Trop-2 antibody attachment position TG6, HIC or mass spectrometry
[3] = attachment position TG6, % DAR remaining after incubation in plasma for 3 or 4.5 days
[4] = attachment position TG6, plasma species not printed in table (values match mouse plasma, Table 4)

Experimental: 100-200 ug of ADC were incubated in mouse plasma (provided by Bioreclamation) supplemented with 1×PBS to the final ADC concentration of 0.125 mg/mL. Following incubation for 3-7 days, samples were diluted with an equal volume of 1×PBS, and ADCs were isolated using Trop2 antigen coupled to CNBr-activated Sepharose (GE Healthcare) using standard protocols. Drug-antibody ratios were assessed before and after in vitro exposure using HIC methods and mass spectrometry.
DAR values for conjugates purified after plasma incubation were compared to DAR values prior to plasma treatment.

Compound | DAR after plasma incubation for 3 to 4.5 days (attachment position L11B) | Conjugate stability (%) [1] [%] | DAR (attachment position L11B) | DAR [2] | Conjugate stability (%) [3] [%] | DAR after plasma incubation for 3 to 4.5 days [4]
CC[C@H](C)[C@@H]([C@@H](CC(=O)N1CCC[C@H]1[C@H](OC)[C@@H](C)C(=O)N[C@@H](Cc1ccccc1)c1nccs1)OC)N(C)C(=O)[C@@H](NC(=O)C(C)(C)NC(=O)OCc1ccc(NC(=O)[C@H](CCCNC(N)=O)NC(=O)[C@@H](NC(=O)[C@H](CCCCN)NC(=O)[C@@H](O)CO)C(C)C)cc1)C(C)C [Example 42, N˜2˜-[(2S)-2,3-dihydroxypropanoyl]-L-lysylvalyl-N-{4-[(8S,11S,12R)-11-[(2S)-butan-2-yl]-12-(2-{(2S)-2-[(1R,2R)-1-methoxy-2-methyl-3-oxo-3-{[(1S)-2-phenyl-1-(1,3-thiazol-2-yl)ethyl]amino}propyl]pyrrolidin-1-yl}-2-oxoethyl)-5,5,10-trimethyl-3,6,9-trioxo-8-(propan-2-yl)-2,13-dioxa-4,7,10-triazatetradec-1-yl]phenyl}-N˜5˜-carbamoyl-L-ornithinamide] ({Glyceroyl(2S)}-KV[Cit][PABC][Aib]V[Dil][Dolaproine]-Doe) | 1.60 | 85 | 1.87 |  |  | 
CC[C@H](C)[C@@H]([C@@H](CC(=O)N1CCC[C@H]1[C@H](OC)[C@@H](C)C(=O)N[C@@H](Cc1ccccc1)c1nccs1)OC)N(C)C(=O)[C@@H](NC(=O)C(C)(C)NC(=O)OCc1ccc(NC(=O)[C@H](CCCNC(N)=O)NC(=O)[C@@H](NC(=O)[C@H](CCCCN)NC(=O)CCO)C(C)C)cc1)C(C)C [Example 43, N˜2˜-(3-hydroxypropanoyl)-L-lysylvalyl-N-{4-[(8S,11S,12R)-11-[(2S)-butan-2-yl]-12-(2-{(2S)-2-[(1R,2R)-1-methoxy-2-methyl-3-oxo-3-{[(1S)-2-phenyl-1-(1,3-thiazol-2-yl)ethyl]amino}propyl]pyrrolidin-1-yl}-2-oxoethyl)-5,5,10-trimethyl-3,6,9-trioxo-8-(propan-2-yl)-2,13-dioxa-4,7,10-triazatetradec-1-yl]phenyl}-N˜5˜-carbamoyl-L-ornithinamide] ({Propanoyl(3-OH)}-KV[Cit][PABC][Aib]V[Dil][Dolaproine]-Doe) | 1.23 | 76 | 1.62 |  |  | 
CC[C@H](C)[C@@H]([C@@H](CC(=O)N1CCC[C@H]1[C@H](OC)[C@@H](C)C(=O)N[C@@H](Cc1ccccc1)c1nccs1)OC)N(C)C(=O)[C@@H](NC(=O)C(C)(C)NC(=O)OCc1ccc(NC(=O)[C@H](CCCNC(N)=O)NC(=O)[C@@H](NC(=O)[C@H](CCCCN)NS(C)(=O)=O)C(C)C)cc1)C(C)C [Example 44, N˜2˜-(methylsulfonyl)lysyl-L-valyl-N-{4-[(8S,11S,12R)-11-[(2S)-butan-2-yl]-12-(2-{(2S)-2-[(1R,2R)-1-methoxy-2-methyl-3-oxo-3-{[(1S)-2-phenyl-1-(1,3-thiazol-2-yl)ethyl]amino}propyl]pyrrolidin-1-yl}-2-oxoethyl)-5,5,10-trimethyl-3,6,9-trioxo-8-(propan-2-yl)-2,13-dioxa-4,7,10-triazatetradec-1-yl]phenyl}-N˜5˜-carbamoylornithinamide] (Ms-KV[Cit][PABC][Aib]V[Dil][Dolaproine]-Doe) | 0.25 | 17 | 1.50 | 1.74 | 47 | 0.82
CC[C@H](C)[C@@H]([C@@H](CC(=O)N1CCC[C@H]1[C@H](OC)[C@@H](C)C(=O)N[C@@H](Cc1ccccc1)c1nccs1)OC)N(C)C(=O)[C@@H](NC(=O)C(C)(C)NC(=O)OCc1ccc(NC(=O)[C@H](CCCNC(N)=O)NC(=O)[C@@H](NC(=O)[C@H](CCCCN)NS(=O)(=O)c2ccccc2)C(C)C)cc1)C(C)C [Example 45, N˜2˜-(phenylsulfonyl)lysyl-L-valyl-N-{4-[(8S,11S,12R)-11-[(2S)-butan-2-yl]-12-(2-{(2S)-2-[(1R,2R)-1-methoxy-2-methyl-3-oxo-3-{[(1S)-2-phenyl-1-(1,3-thiazol-2-yl)ethyl]amino}propyl]pyrrolidin-1-yl}-2-oxoethyl)-5,5,10-trimethyl-3,6,9-trioxo-8-(propan-2-yl)-2,13-dioxa-4,7,10-triazatetradec-1-yl]phenyl}-N˜5˜-carbamoylornithinamide] (Benzenesulfonyl-KV[Cit][PABC][Aib]V[Dil][Dolaproine]-Doe) | 0 | 0 | 0.66 | 1.42 | 3 | 0.04
CC[C@H](C)[C@@H]([C@@H](CC(=O)N1CCC[C@H]1[C@H](OC)[C@@H](C)C(=O)N[C@@H](Cc1ccccc1)c1nccs1)OC)N(C)C(=O)[C@@H](NC(=O)C(C)(C)NC(=O)OCc1ccc(NC(=O)[C@H](CCCNC(N)=O)NC(=O)[C@@H](NC(=O)[C@@H](COCCN)NC(C)=O)C(C)C)cc1)C(C)C [Example 46, N-acetyl-O-(2-aminoethyl)-D-seryl-L-valyl-N-{4-[(8S,11S,12R)-11-[(2S)-butan-2-yl]-12-(2-{(2S)-2-[(1R,2R)-1-methoxy-2-methyl-3-oxo-3-{[(1S)-2-phenyl-1-(1,3-thiazol-2-yl)ethyl]amino}propyl]pyrrolidin-1-yl}-2-oxoethyl)-5,5,10-trimethyl-3,6,9-trioxo-8-(propan-2-yl)-2,13-dioxa-4,7,10-triazatetradec-1-yl]phenyl}-N˜5˜-carbamoylornithinamide] (Ac-[dS](Ethyl(2-NH2))V[Cit][PABC][Aib]V[Dil][Dolaproine]-Doe) | 0.69 | 51 | 1.36 |  |  | 
CC[C@H](C)[C@@H]([C@@H](CC(=O)N1CCC[C@H]1[C@H](OC)[C@@H](C)C(=O)N[C@@H](Cc1ccccc1)c1nccs1)OC)N(C)C(=O)[C@@H](NC(=O)C(C)(C)NC(=O)OCc1ccc(NC(=O)[C@H](CCCNC(N)=O)NC(=O)[C@@H](NC(=O)[C@H](COCCOCCN)NC(C)=O)C(C)C)cc1)C(C)C [Example 47, N-acetyl-O-[2-(2-aminoethoxy)ethyl]-L-seryl-L-valyl-N-{4-[(8S,11S,12R)-11-[(2S)-butan-2-yl]-12-(2-{(2S)-2-[(1R,2R)-1-methoxy-2-methyl-3-oxo-3-{[(1S)-2-phenyl-1-(1,3-thiazol-2-yl)ethyl]amino}propyl]pyrrolidin-1-yl}-2-oxoethyl)-5,5,10-trimethyl-3,6,9-trioxo-8-(propan-2-yl)-2,13-dioxa-4,7,10-triazatetradec-1-yl]phenyl}-N˜5˜-carbamoylornithinamide] (Ac-S(X3)V[Cit][PABC][Aib]V[Dil][Dolaproine]-Doe) | 0.40 | 20 | 1.96 |  |  | 
